In patent US5831007, “Human receptor for interleukin-12” (Hoffmann-La Roche Inc., dated 1998):

Columns and labels:
[1] = target: T1, Recombinant human low affinity IL-12 receptor protein (clone No. 5) expressed in COS cells (human); assay: IL-12 binding to transfected COS cells; told in the discussion
[2] = target: T1, Recombinant human low affinity IL-12 …; assay: IL-12 binding to intact transfected COS cells; told in the discussion
[3] = target: T1, Recombinant human low affinity IL-12 …; assay: steady state binding of 125I-IL-12 to rIL-12R expressing COS cells, Scatchard (FIGS. 4A and 4B)
Method: The characteristics of the protein bound by mAb 2-4E6 fulfilled standard criterion for an IL-12R and therefore 2-4E6 was used in an expression cloning strategy to isolate a cDNA coding for the human IL-12R. A cDNA coding for the human IL-12R was isolated by this method (U. Gubler and A. O. Chua, unpublished observations). The IL-12R cDNA was engineered in a mammalian cell expression vector, transfected into COS-7 cells and the specificity for binding of ^125I-IL-12 and ^125I-2-4E6 was determined. […] This low affinity IL-12 binding site corresponds to the low affinity site seen in the binding assays with human cells that naturally express IL-12R. The binding of ^125I-2-4E6 to, rIL-12R expressed in the COS cells is saturable and specific and identifies approximately 500,000 sites/cell (FIGS. 4C and 4D).
For FIGS. 4A and 4B, COS cells were transfected with a plasmid expressing human rIL-12R as. described. Three days later, transfected cells (1×10^4 cells) were incubated for 2 hrs at room temperature with increasing concentration of ^125I-IL-12 in the absence (o) or presence (□) of 50 nM unlabeled IL-12. Total (o) and non-specific (□) cell bound radioactivity were determined as described. Specific binding of ^125I-IL-12 (▲) was calculated by subtracting non-specific binding from total binding.

[4] = target: Human IL-12 receptor subunit monomer (on murine CTLL transfectants, which only express monomers); monomer form … (human); assay: IL-12 binding to murine CTLL transfectants stably expressing the IL-12 receptor subunit (monomers only)
[5] = target: T1, Recombinant human low affinity IL-12 …; assay: equilibrium binding of labeled IL-12 to COS cells electroporated with clone number 5, Scatchard, single site (FIG. 19A)
Method: (§1) Binding assays with labeled IL-12 or labeled 2-4E6 antibody were run as described hereinabove under anti human IL-12 receptor antibody. The binding data were analyzed and Kd values were calculated according to Scatchard, using the LIGAND program discussed hereinabove under anti human IL-12 receptor antibody. In vivo labeling (6 hours) of COS cells (3 ×10^5 cells per 35 mm diameter tissue culture dish) with […] was performed 3 days after transfection as described (Molecular Cloning Manual). Cells were washed in PBS and lysed in CHAPS lysis buffer (10 mM CHAPS-300 mM Nacl-50 mM Tris-HCl pH 7.4-2 mg/ml lodoacetamide-0.17 mg/ml PMSF), precleared by incubation with protein G Sepharose beads (50 µl packed beads per ml, Genex) and normal mouse serum (25% final concentration) at 4° C. overnight. […]
(§2) IL-12 receptor cDNA (clone number 5) (SEQ ID NO:1) was electroporated into COS cells and equilibrium binding of labeled human and murine IL-12 to the cells was performed and analyzed as described (R. Chizzonite, et al., 1992, J. Immunol., 148:3117). […] After transformation by the method of Scatchard, the equilibrium binding data was best described by a single receptor site model as determined by the LIGAND program. The site numbers indicated in FIG. 19 are calculated assuming that all cells are expressing receptors. […]

[6] = target: T1, Recombinant human low affinity IL-12 …; assay: equilibrium binding of labeled IL-12 to COS cells electroporated with clone number 5, Scatchard, single site (FIG. 19B)
Method: as §1, §2

Row | Binder | Kd [1] [nM] | Kd [2] [nM] | Kd [3] [nM] | Kd [4] [nM] | Kd [5] [nM] | Kd [6] [nM]
1 | Recombinant human IL-12 (Interleukin-12) (ligand) chain 1: IWELKKDVYVVELDWYPDAPGEMVVLTCDTPEEDGITWTLDQSSEVLGSGKTLTIQVKEFGDAGQYTCHKGGEVLSHSLLLLHKKEDGIWSTDILKDQKEPKNKTFLRCEAKNYSGRFTCWWLTTISTDLTFSVKSSRGSSDPQGVTCGAATLSAERVRGDNKEYEYSVECQEDSACPAAEESLPIEVMVDAVHKLKYENYTSSFFIRDIIKPDPPKNLQLKPLKNSRQVEVSWEYPDTWSTPHSYFSLTFCVQVQGKSKREKKDRVFTDKTSATVICRKNASISVRAQDRYYSSSWSEWASVPCS chain 2: RNLPVATPDPGMFPCLHHSQNLLRAVSNMLQKARQTLEFYPCTSEEIDHEDITKDKTSTVEACLPLELTKNESCLNSRETSFITNGSCLASRKTSFMMALCLSSIYEDLKMYQVEFKTMNAKLLMDPKRQIFLDQNMLAVIDELMQALNFNSETVPQKSSLEEPDFYKTKIKLCILLHAFRIRAVTIDRVMSYLNAS | ~3 | 2 to 5 | 2 to 6 | ≥ 50 | 3.4 | –
2 | Recombinant murine IL-12 (ligand) chain 1: MWELEKDVYVVEVDWTPDAPGETVNLTCDTPEEDDITWTSDQRHGVIGSGKTLTITVKEFLDAGQYTCHKGGETLSHSHLLLHKKENGIWSTEILKNFKNKTFLKCEAPNYSGRFTCSWLVQRNMDLKFNIKSSSSSPDSRAVTCGMASLSAEKVTLDQRDYEKYSVSCQEDVTCPTAEETLPIELALEARQQNKYENYSTSFFIRDIIKPDPPKNLQMKPLKNSQVEVSWEYPDSWSTPHSYFSLKFFVRIQRKKEKMKETEEGCNQKGAFLVEKTSTEVQCKGGNVCVQAQDRYYNSSCSKWACVPCRVRS chain 2: RVIPVSGPARCLSQSRNLLKTTDDMVKTAREKLKHYSCTAEDIDHEDITRDQTSTLKTCLPLELHKNESCLATRETSSTTRGSCLPPQKTSLMMTLCLGSIYEDLKMYQTEFQAINAALQNHNHQQIILDKGMLVAIDELMQSLNHNGETLRQKPPVGEADPYRVKMKLCILLHAFSTRVVTINRVMGYLSSA | – | – | – | – | – | 2.1
